Laboratory results: the supplement of paper PMC6757056
± gives the standard deviation of the averaged measurements.

B1: library; a variant is named by its letters at N, in order (parent)
chain: GCUGUCACCGGUGUAUUACCCUAGUGGUCGACCGGUCUGAUGAGUCUNNNNNNAGACGAAACAGC

Experiments:
hypoxanthine [1] = variants of: B1; assay: normalized RNA/DNA level with ligand (relative to sTRSVctl = 100) (log10 (% of sTRSVctl)); ligand: hypoxanthine (xanthine aptamer); higher = less ribozyme self-cleavage, higher mRNA level; details: ligand concentration (+) RNA-Seq: 5 mM, HEK293T, reporter: mCherry (pCS4076), ligand present: yes
Outline: (§1)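 Ribozyme switch library plasmids with mCherry reporters (eGFP in certain ligand experiments) went into HEK293T cells at 4 µg per 6-well well. Where ligand was used, it was applied 1 h before transfection, and total RNA was extracted with EDTA 72 h later for reverse transcription, amplification, barcoding and sequencing. RNA level is the RNA-to-DNA read ratio normalized to a spiked-in non-cleaving sequence or to the leading sequences, then scaled and log-transformed. Scaling was ×100 with log10, the leading set comprised 25 sequences, and the cutoff was ≥100 DNA reads.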

hypoxanthine [2] = variants of: B1; assay: normalized RNA/DNA level without ligand (relative to sTRSVctl = 100) (log10 (% of sTRSVctl)); ligand: hypoxanthine (xanthine aptamer); higher = less ribozyme self-cleavage, higher mRNA level; details: HEK293T, reporter: mCherry (pCS4076), ligand present: no
Outline: as §1

hypoxanthine [3] = variants of: B1; assay: FACS-Seq fitted mean relative fluorescence mCherry/BFP without ligand (log10 relative fluorescence); ligand: hypoxanthine (xanthine aptamer); higher = higher reporter protein expression; details: HEK293T, ligand present: no
Outline: (§2)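 Cells were sorted into 6 bins on the mCherry/BFP ratio after 48 h with or without ligand. These were enriched HEK293T cells transduced by lentivirus with a ribozyme-switch mCherry reporter plus an EF1α-BFP marker. Fluorescence was obtained by fitting a normal distribution to sequencing-derived bin counts. Counts came from MiSeq sequencing of PCR-amplified, barcoded genomic DNA, binned by log10(mCherry/BFP), with means scaled to five spiked-in control ribozymes.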

hypoxanthine [4] = variants of: B1; assay: FACS-Seq fitted mean relative fluorescence mCherry/BFP with ligand (log10 relative fluorescence); ligand: hypoxanthine (xanthine aptamer); ligand concentration (+) FACS-Seq: 5 mM; higher = higher reporter protein expression; details: HEK293T, ligand present: yes
Outline: as §2

Variant | normalized RNA/DNA level with ligand (log10) (hypoxanthine [1]) | normalized RNA/DNA level without ligand (log10) (hypoxanthine [2]) | FACS-Seq fitted mean (log10) (hypoxanthine [3]) | FACS-Seq fitted mean (log10) (hypoxanthine [4])
GACCGC | 1.89 ± 0.029 | 1.7634 ± 0.0011 |  | 
GACCGA | 1.97 ± 0.032 | 1.8545 ± 0.00036 |  | 
CAAUCA | 1.91 ± 0.069 | 1.77 ± 0.0087 |  | 
CAAUCG | 1.98 ± 0.083 | 1.89 ± 0.019 |  | 
CAAUCU | 2.01 ± 0.059 | 1.85 ± 0.042 |  | 
CUUUCA | 1.918 ± 0.0052 | 1.89 ± 0.041 | 0.608 ± 0.077 | 0.565 ± 0.017
CUUGGA | 1.95 ± 0.032 | 1.85 ± 0.02 | 0.708 ± 0.039 | 0.705 ± 0.086
AUUGCG | 1.857 ± 0.015 | 1.41 ± 0.065 | -0.0459 ± 0.021 | 0.458 ± 0.028
CACAGC | 1.9491 ± 1.9e-05 | 1.87 ± 0.044 |  | 
CACAGG | 1.77 ± 0.089 | 1.26 ± 0.06 |  | 
CACAGA | 1.97 ± 0.05 | 1.847 ± 0.015 |  | 
CACAGU | 1.926 ± 0.0077 | 1.844 ± 0.0086 |  | 
UUUGAG | 1.88 ± 0.027 | 1.54 ± 0.021 | 0.198 ± 0.18 | 0.502 ± 0.067
CACCCU | 1.96 ± 0.034 | 1.91 ± 0.096 |  | 
CACCCA | 1.958 ± 0.016 | 1.83 ± 0.019 |  | 
CACCCG | 1.94 ± 0.028 | 1.906 ± 0.01 |  | 
CACCCC | 1.96 ± 0.025 | 1.8889 ± 0.0018 |  | 
UUUGUG | 1.954 ± 0.015 | 1.76 ± 0.031 | 0.449 ± 0.0072 | 0.537 ± 0.024
UACACG | 1.87 ± 0.035 | 1.63 ± 0.02 |  | 
UACACC | 1.961 ± 0.0059 | 1.9 ± 0.027 |  | 
UACACA | 1.899 ± 0.0042 | 1.859 ± 0.012 |  | 
GAACGU | 1.9 ± 0.037 | 1.688 ± 0.014 |  | 
AAACGC | 1.91 ± 0.063 | 1.68 ± 0.021 |  | 
GAACUC | 1.9377 ± 0.00012 | 1.9 ± 0.01 |  | 
GAACUG | 1.87 ± 0.05 | 1.519 ± 0.0031 |  | 
AAAUAC | 1.89 ± 0.026 | 1.77 ± 0.048 |  | 

Variant | normalized RNA/DNA level with ligand (log10) (hypoxanthine [1]) | normalized RNA/DNA level without ligand (log10) (hypoxanthine [2]) | FACS-Seq fitted mean (log10) (hypoxanthine [3]) | FACS-Seq fitted mean (log10) (hypoxanthine [4])
GUUUAA | 1.917 ± 0.0057 | 1.83 ± 0.03 | 0.00874 ± 0.0085 | 0.204 ± 0.078
GUUUAG | 1.81 ± 0.023 | 1.464 ± 0.013 | 0.256 ± 0.013 | 0.65 ± 0.013
UACAGU | 1.8101 ± 0.00016 | 1.52 ± 0.066 |  | 
AAACAC | 1.885 ± 0.011 | 1.712 ± 0.0056 |  | 
CACCUC | 1.99 ± 0.081 | 1.969 ± 0.011 |  | 
CACCUA | 1.921 ± 0.0097 | 1.76 ± 0.11 |  | 
CACCUG | 2.01 ± 0.064 | 1.922 ± 0.009 |  | 
UAAUAC | 1.929 ± 0.013 | 1.79 ± 0.026 |  | 
UAAACA | 1.913 ± 0.017 | 1.875 ± 0.015 |  | 
UAAACU | 1.94 ± 0.039 | 1.87 ± 0.034 |  | 
UAAACG | 1.9 ± 0.087 | 1.71 ± 0.036 |  | 
UAAACC | 1.955 ± 0.016 | 1.91 ± 0.0052 |  | 
AUUGAU | 1.92 ± 0.07 | 1.73 ± 0.074 | 0.686 ± 0.037 | 0.657 ± 0.014
AUUGAG | 1.82 ± 0.062 | 1.37 ± 0.029 | 0.25 ± 0.005 | 0.476 ± 0.0067
UAACUC | 2.009 ± 0.013 | 1.97 ± 0.04 |  | 
UAACUU | 1.97 ± 0.0029 | 1.899 ± 0.0086 |  | 
CAAUAG | 1.905 ± 0.0064 | 1.69 ± 0.03 |  | 
CAAUAU | 1.929 ± 0.016 | 1.811 ± 0.01 |  | 
CAAUUC | 1.93 ± 0.07 | 1.87 ± 0.058 |  | 
AUUUUG | 1.933 ± 0.0027 | 1.59 ± 0.083 | 0.224 ± 0.041 | 0.466 ± 0.012
AUUUUU | 1.93 ± 0.054 | 1.88 ± 0.032 | 0.433 ± 0.019 | 0.378 ± 0.044
CAACCC | 1.98 ± 0.012 | 1.855 ± 0.011 |  | 
CAACCU | 1.98 ± 0.049 | 1.911 ± 0.0025 |  | 
CAACCA | 1.95 ± 0.066 | 1.803 ± 0.0098 |  | 
CAACCG | 1.95 ± 0.096 | 1.89 ± 0.028 |  | 
AUUGUG | 1.8 ± 0.023 | 1.39 ± 0.034 | 0.0887 ± 0.00064 | 0.469 ± 0.1

Variant | normalized RNA/DNA level with ligand (log10) (hypoxanthine [1]) | normalized RNA/DNA level without ligand (log10) (hypoxanthine [2]) | FACS-Seq fitted mean (log10) (hypoxanthine [3]) | FACS-Seq fitted mean (log10) (hypoxanthine [4])
UAAAUC | 1.93 ± 0.044 | 1.97 ± 0.028 |  | 
UAAGUA | 1.89 ± 0.041 | 1.8797 ± 0.00095 |  | 
UAAGUU | 1.97 ± 0.025 | 1.83 ± 0.02 |  | 
UAAGUC | 1.932 ± 0.0068 | 1.925 ± 0.016 |  | 
CAAGUU | 1.93 ± 0.021 | 1.939 ± 0.0037 |  | 
CAAGUG | 1.92 ± 0.026 | 1.81 ± 0.042 |  | 
CAAGUA | 1.89 ± 0.054 | 1.779 ± 0.011 |  | 
AACACU | 1.92 ± 0.044 | 1.859 ± 0.018 |  | 
CACCAU | 1.92 ± 0.021 | 1.8 ± 0.024 |  | 
CACCAA | 1.9 ± 0.032 | 1.79 ± 0.082 |  | 
CACCAG | 1.97 ± 0.057 | 1.81 ± 0.061 |  | 
AUUUGU | 1.923 ± 0.01 | 1.638 ± 0.013 | 0.6123 ± 2.1e-06 | 0.723 ± 0.041
AUUUGA | 1.91 ± 0.033 | 1.6633 ± 0.00044 | 0.636 ± 0.085 | 0.602 ± 0.16
AUUUGC | 1.91 ± 0.043 | 1.783 ± 0.0061 | 0.485 ± 0.047 | 0.704 ± 0.052
UAAUCC | 1.917 ± 0.015 | 1.84 ± 0.041 |  | 
UAAUCA | 1.955 ± 0.019 | 1.886 ± 0.0084 |  | 
AAAUGU | 1.865 ± 0.013 | 1.633 ± 0.013 |  | 
AACAUC | 1.95 ± 0.022 | 2.02 ± 0.022 |  | 
AACAUU | 1.91 ± 0.053 | 1.873 ± 0.011 |  | 
AAAUCC | 1.94 ± 0.055 | 1.829 ± 0.0029 |  | 
AAAUCU | 1.94 ± 0.089 | 1.9 ± 0.039 |  | 
GAAGGC | 1.889 ± 0.016 | 1.52 ± 0.044 |  | 
GAAGGU | 1.91 ± 0.068 | 1.73 ± 0.06 |  | 
CAACAG | 1.92 ± 0.021 | 1.717 ± 0.013 |  | 
CAACAA | 1.88 ± 0.03 | 1.701 ± 0.015 |  | 
AACCAU | 1.873 ± 0.0073 | 1.8 ± 0.04 |  | 

Variant | normalized RNA/DNA level with ligand (log10) (hypoxanthine [1]) | normalized RNA/DNA level without ligand (log10) (hypoxanthine [2]) | FACS-Seq fitted mean (log10) (hypoxanthine [3]) | FACS-Seq fitted mean (log10) (hypoxanthine [4])
AACCAA | 1.91 ± 0.037 | 1.78 ± 0.072 |  | 
UUUUCC | 1.94 ± 0.03 | 1.935 ± 0.013 | -0.155 ± 0.032 | 0.362 ± 0.077
UACAUU | 1.941 ± 0.0099 | 1.855 ± 0.016 |  | 
UACAUC | 1.979 ± 0.018 | 2 ± 0.03 |  | 
UACAUA | 1.93 ± 0.038 | 1.86 ± 0.024 |  | 
AAACUA | 1.89 ± 0.043 | 1.7704 ± 0.0017 |  | 
AAACUC | 1.95 ± 0.035 | 1.95 ± 0.021 |  | 
UACAAC | 1.97 ± 0.035 | 1.82 ± 0.081 |  | 
UACAAA | 1.88 ± 0.063 | 1.755 ± 0.0034 |  | 
AAAGAC | 1.9 ± 0.039 | 1.82 ± 0.019 |  | 
CUUUAU | 1.88 ± 0.098 | 1.78 ± 0.028 | 0.0718 ± 0.034 | 0.344 ± 0.07
CUUUAG | 2.02 ± 0.036 | 1.808 ± 0.017 | 0.52 ± 0.017 | 0.386 ± 0.085
CAAUGA | 1.92 ± 0.038 | 1.82 ± 0.051 |  | 
CAAUGC | 1.95 ± 0.047 | 1.89 ± 0.029 |  | 
AAAAGC | 1.9 ± 0.027 | 1.77 ± 0.042 |  | 
CACCGC | 2.015 ± 0.0091 | 1.91 ± 0.042 |  | 
CACCGG | 1.875 ± 0.0026 | 1.58 ± 0.13 |  | 
CACCGU | 1.93 ± 0.064 | 1.892 ± 0.011 |  | 
GAAUAU | 1.93 ± 0.043 | 1.8073 ± 0.00093 |  | 
AAAGCC | 1.94 ± 0.04 | 1.817 ± 0.0038 |  | 
GACCCA | 1.928 ± 0.0094 | 1.833 ± 0.0075 |  | 
GAACCC | 1.945 ± 0.0058 | 1.88 ± 0.026 |  | 
GAACCU | 1.95 ± 0.043 | 1.92 ± 0.026 |  | 
GUUGAU | 1.936 ± 0.015 | 1.79 ± 0.021 | 0.224 ± 0.074 | 0.303 ± 0.031
GUUGAG | 1.81 ± 0.019 | 1.34 ± 0.038 | 0.255 ± 0.018 | 0.659 ± 0.082
